Experimental data published in the supplement of paper PMC9170038.

Tested on: MS2 coat protein
Test: apparent KD of MS2 coat protein; designed switch direction (-1 OFF switch, 1 ON switch): 1; higher = weaker reporter binding
How it was run: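 An oligonucleotide input, 200 uM small-molecule ligand, or no input was present during titration of SNAP-549-labelled MS2 coat protein, which was doubled from 0.7 or 1.5 nM to 3 µM. Designed RNA switches had been transcribed on Illumina chips by stalled E. coli RNA polymerase. Apparent KD per design is the median over clusters of curves fitted to normalised cluster fluorescence.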

[1] = Eterna round: R95, input ligand: FMN 200 uM
[2] = Eterna round: R95, input ligand: microRNA oligo, concentration not stated
[3] = Eterna round: R95, input ligand: none
[4] = input ligand: microRNA oligo, concentration not stated

Row | Sequence | apparent KD of MS2 coat protein [1] [nM] | apparent KD of MS2 coat protein [2] [nM] | apparent KD of MS2 coat protein [3] [nM] | apparent KD of MS2 coat protein (input ligand: FMN 200 uM) [nM] | apparent KD of MS2 coat protein [4] [nM] | apparent KD of MS2 coat protein (input ligand: none) [nM]
1 | AUAAGUUUGAUGCUCGUCUCUCCGUACAGACAUGAGGAUCACCCAUGUAGCCGGGAAGUAGCCCGACCAGUAUGGCC [Isriinus] (puzzle: Sensor for hsa-mir-208a) | 72.2 | 23.9 | 93.7 | – | – | –
2 | GGAGCCGGUACUGAGGAUAUUCGUAUUAAAACAUGAGGAUCACCCAUGUAGGCCAGAAGGCCUUGGGAGAAGGCAGAUCGGCUCC [Biseusra - 1] (puzzle: Same State 2) | 13.2 | 36 | 48.3 | – | – | –
3 | GUGUGUUGCGGGCAGGAUAUGUACUUGAGUACAUGAGGAUCACCCAUGUGCGCCUGUUUCAGGCGACAGAAGGGCCUAUCGCGAC [JL-ss2-3.26 ViennaUCT mod] (puzzle: Same State 2) | 121 | 318 | 1340 | – | – | –
4 | GCGAAGAGGUAAGGAUAUGCAUGGCGUAGACAUGAGGAUCACCCAUGUAGGAGACGAAUUAGAAGGGAGAAGGUACCAGGACGC [AK SSNG2-V2-17.1] (Eterna round: R96, puzzle: Same State NG 2) | – | – | – | 939 | 699 | 746
5 | CUCAAACAUGAGGAUCACCCAUGUGUUGUCAUGGGAGGAUAUCCAAGUUCGUUGUAGUCGGGAGAAGGCCUAUGUC [× ×•×ª×• ×ž×“×™× ×” × ×—×ª-12] (puzzle: Same State 1) | – | 139 | – | – | – | –
6 | GGAGAGAGAGCGCAGGAUAUUCAAGGAGAGACAUGAGGAUCACCCAUGUAAGAGAGAGAGGAGAGGGAGAAGGGUGAGAGAGAGG [Altered State 2-12 - Jieux - Same State 2] (puzzle: Same State 2) | 28.5 | 27.8 | 22 | – | – | –
7 | GUUACAUGAGGAUCACCCAUGUAUGUGUGGGAGUAAGUGUCUUAGGAUAUCUGUUAUUAAAUUUAAGAGAAGGAAGAUUGUUGU [JMF's solution 36] (Eterna round: R96, puzzle: Same State NG 3) | – | – | – | 104 | 64.1 | 92.7
8 | AGCUAUUACGAAGGAUAUUGUAACAUGAGGAUCACCCAUGUUUACAUGAUUAAUUGUGAUCACGUCGAGAAGGUUGUACUAACA [SameState NG2 #33] (Eterna round: R96, puzzle: Same State NG 2) | – | – | – | 17.5 | 16.5 | 19
9 | ACAUGAGGAUCACCCAUGUAUAGAAUUGAAUGUUAAGAUACGUAGGAUAUCGAGAUUAGUAUGAUCGAGAAGGACGAUUAGAUA [JR_SSNG3_Sub064] (Eterna round: R96, puzzle: Same State NG 3) | – | – | – | 12.6 | 16.6 | 20.3
10 | CCAGGACAUGAGGAUCACCCAUGUGCUUAAUGUGGAGAAUCUCAGGAUAUCAUGAGGAUCACCCAUGAGAAGGGAGAUCCGAGG (Eterna round: R96, puzzle: Same State NG 3) | – | – | – | 573 | 234 | 398
11 | GCUCGACGUGUUGUCUACAUGAGGAUCACCCAUGUAGGUGCGGAGGAUAUCUACGUGUUUCAUGUAGAGAAGGUCGUGUCGAGC [SameState NG3 #89] (Eterna round: R96, puzzle: Same State NG 3) | – | – | – | 40.2 | 55.3 | 73.3
12 | GAGUGGUGGAGAGGAUAUACAUUGUUAUUCACUGUAGAAGGUUCUAACAUGAGGAUCACCCAUGUAGGACUAUUCCUGAGAGUU [Parity 55 - Jieux - Same State NG 1] (Eterna round: R96, puzzle: Same State NG 1) | – | – | – | 13.1 | 10.9 | 14.2
13 | AAGCAUGAAAACAUGCAUAAAAAGUUUGUACAUGAGGAUCACCCAUGUAUGUGCAAGCUUUUUGCUCGUCUUGAAAA [JL SD Zipper 5] (Eterna round: R96, puzzle: Sensor for hsa-mir-208a) | – | – | – | 171 | 17.4 | 171
14 | AGAGCCGGCACUGAGGAUAUUCAUAAUAAAACAUGAGGAUCACCCAUGUAGGCCAGAAGGCCUUGGGAGAAGGCAGGUCGGCUCA [Mat - Same State 2 - Mod of UCT - D67] (puzzle: Same State 2) | 16.7 | 176 | 269 | – | – | –
15 | GUGGCCCAGGCACAGGAUAUGUUUCUCGUAACAUGAGGAUCACCCAUGUGCCUAUGAGAUUUAAUGCAGAAGGGUGCACGCCACG [Atiinbe] (Eterna round: R96, puzzle: Same State 2) | – | – | – | 18.2 | 61.3 | 103
16 | GUAGCAUACCGAGGAUAUUCAUAUACAUGAGGAUCACCCAUGUUGGCCAGCAUUAGCUGGCCUUGGGAGAAGGCGGAAUGCUAC [Xeonanis - 20 Mod50] (Eterna round: R96, puzzle: Same State NG 2) | – | – | – | 18.9 | 79.4 | 141
17 | UCUGCAUGAACAGGAUAUGGGUUCAGAGCGGGAGUGCGCUUUGACACAUGAGGAUCACCCAUGUCCCAGAAGGGUUCAAGCGGC [Rianbein] (Eterna round: R96, puzzle: Same State NG 2) | – | – | – | 47.7 | 219 | 430
18 | GAGGGCGAAAGCGACAUGAGGAUCACCCAUGUCCUCGGAGGGCAGGAUAUCCGGCAGUAGCCGAAGGAGAAGGGUCGAAAAGAA [AK SSNG3-V2-35.1] (Eterna round: R96, puzzle: Same State NG 3) | – | – | – | 53.4 | 35.7 | 53.6
19 | GGAAUAUUUACAGGAUAUGAGUUGUAAAGUCGAUCAGAAGGGUAGGUGUCUUACACGGUGUGUUACAUGAGGAUCACCCAUGUU [SameState NG1 #20] (Eterna round: R96, puzzle: Same State NG 1) | – | – | – | 136 | 147 | 215
20 | ACAUGAGAUAGAGGAUAUAUUGUACCUACAUGUGACAUGAGGAUCACCCAUGUGGUAAGUAUGACAUAGAAGGCUGAGAUAUGU [Equivalance 83 - Jieux - Same State NG 2] (Eterna round: R96, puzzle: Same State NG 2) | – | – | – | 69.8 | 67.5 | 77
21 | GUUAACUUGAGAGGAUAUGUAGAGGAUCACCCUACAGAAGGCUCUUUGGAGAGGAUAUGUAGAGGAUCACCCUACAGAAGGCUC [pwkr ssNG DX.6] (Eterna round: R96, puzzle: Same State NG 1) | – | – | – | 56.5 | 33.7 | 25.9
22 | AUUAUUUAUGCAGGAUAUGAUUAACAUGAGGAUCACCCAUGUGGUGUUGUGAGUAAGGAGAGUGAUCAGAAGGGCAUUUGUUUU [JMF's solution 48] (Eterna round: R96, puzzle: Same State NG 2) | – | – | – | 386 | 321 | 402
23 | UUGCGGGCUUGAGGAUAUUGAGUACAUAUGUUUAACAUGAGGAUCACCCAUGUGGGUUGCGGUAUCGAGAAGGUAACUUCCUUC [salish99_SSNG2_r04_810] (Eterna round: R96, puzzle: Same State NG 2) | – | – | – | 190 | 146 | 157
24 | UUUAGUUGCGCGCAGGAUAUGUAUUAAUAUACAUGAGGAUCACCCAUGUGAGACCAAAUAGGUCUACAGAAGGGCGAAUCGCGAC [Laonerce - 29] (puzzle: Same State 2) | 29.4 | 234 | 715 | – | – | –
25 | UCUCGGCACGCAGGAUAUCCCGCUUCCUGGUGAGGAGAAGGGUGGUCGGGAAAACAUGAGGAUCACCCAUGUAAAAGUAAGAGG [Usdidige] (Eterna round: R96, puzzle: Same State NG 1) | – | – | – | 41.6 | 61.3 | 183
26 | AGUCCAGCCUGAGCUGGACAAAAGCAUGUACAUGAGGAUCACCCAUGUUCAUGUGCAAGCUUUUUGCUCGUCUUAAA [Zipper 52 - 4] (Eterna round: R96, puzzle: Sensor for hsa-mir-208a) | – | – | – | 71.5 | 10.7 | 69.8
27 | GGUCCAGCCUGAGCUGGACAAAAGCAUGUACAUGAGGAUCACCCAUGUCAUGUACAAGCUUUUUGCUCGUUUUAAAA [JL mod - D87 - 14] (puzzle: Sensor for hsa-mir-208a) | 527 | 14.5 | 576 | – | – | –
28 | CGCGCUCCGGUAGGAUAUGAGGUGCCGUAGGGACCCGCCUACGGACAUGAGGAUCACCCAUGUCCUCAGAAGGACCGGGCGUGA [Soenonorma] (Eterna round: R96, puzzle: Same State NG 2) | – | – | – | 15.1 | 29.6 | 35.5
29 | GAGUAGUUGAAAGGAUAUUGAUUAUUGUAGGAUCAAGAAGGUUUUAACAUGAGGAUCACCCAUGUAGGACUAUAUAUGUGAAUA [Parity 95 - Jieux - Same State NG 1] (Eterna round: R96, puzzle: Same State NG 1) | – | – | – | 12.2 | 12.3 | 16
30 | UGGUACAUGGGAGGAUAUGGAGUGAUGACAUGAGGAUCACCCAUGUUAUAUAUGCCGAGAGGCAACUAGAAGGCCCAUGUACCU [JL SSNG1 3.97] (Eterna round: R96, puzzle: Same State NG 2) | – | – | – | 19.4 | 121 | 137
